Test results from US20180355035A1 (STCUBE, published 2018).

Experiments:
[1] = target: T1, hBTN1A1 overexpressed in PC3 prostate cancer cells (human, UniProt Q13410 27-526); assay: cell-based or functional assay
T1 sequence: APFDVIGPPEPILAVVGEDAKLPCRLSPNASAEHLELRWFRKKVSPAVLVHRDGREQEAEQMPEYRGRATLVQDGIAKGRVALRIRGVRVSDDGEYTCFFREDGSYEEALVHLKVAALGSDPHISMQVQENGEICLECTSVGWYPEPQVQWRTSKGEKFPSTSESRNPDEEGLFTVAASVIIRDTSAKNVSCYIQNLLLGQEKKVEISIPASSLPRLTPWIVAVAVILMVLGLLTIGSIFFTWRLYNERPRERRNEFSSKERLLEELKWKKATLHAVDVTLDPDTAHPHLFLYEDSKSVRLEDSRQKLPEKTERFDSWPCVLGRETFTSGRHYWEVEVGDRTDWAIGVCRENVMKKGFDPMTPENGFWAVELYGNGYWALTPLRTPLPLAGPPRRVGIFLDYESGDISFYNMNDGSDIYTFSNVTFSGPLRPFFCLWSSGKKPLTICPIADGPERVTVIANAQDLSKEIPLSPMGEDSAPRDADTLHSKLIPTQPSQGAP

[2] = target: T2, wild-type human BTN1A1 expressed in HEK293T cells (human, UniProt Q13410 27-526, fully glycosylated, as the filing says); assay: FACS on 293T cells overexpressing BTN1A1 WT or 2NQ, FITC secondary antibody
T2 construct: in whole-cell lysates in the Western blot; also called BTN1A1 WT; human BTN1A1 WT; not shown: C-terminal flag tag
T2 sequence: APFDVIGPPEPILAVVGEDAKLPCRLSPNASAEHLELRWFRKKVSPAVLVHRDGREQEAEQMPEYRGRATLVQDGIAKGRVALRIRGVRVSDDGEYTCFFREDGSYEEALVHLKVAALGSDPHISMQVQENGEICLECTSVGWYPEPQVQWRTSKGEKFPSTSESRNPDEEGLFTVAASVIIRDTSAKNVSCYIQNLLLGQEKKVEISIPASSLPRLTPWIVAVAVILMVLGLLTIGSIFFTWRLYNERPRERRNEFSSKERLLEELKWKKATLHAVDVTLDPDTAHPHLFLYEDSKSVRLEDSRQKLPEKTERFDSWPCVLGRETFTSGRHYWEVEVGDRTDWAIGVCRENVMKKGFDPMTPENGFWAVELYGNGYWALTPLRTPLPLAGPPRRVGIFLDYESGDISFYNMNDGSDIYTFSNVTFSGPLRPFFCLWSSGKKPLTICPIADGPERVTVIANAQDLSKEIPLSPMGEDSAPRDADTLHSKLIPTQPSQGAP
Procedure: FIG. 10—FACS analysis of mouse anti-human BTN1A1 monoclonal antibodies. Human BTN1A1-2NQ (i.e. N55Q and N215Q) and human BTN1A1 WT were expressed in HEK293T cells by transient transfection. The surface expression of hBTN1A1 was measured by FACS analysis with anti-BTN1A1 monoclonal antibodies designated as STC702, STC810, STC819, STC820, STC821, STC822, STC838, and STC839. Anti-BTN1A1 polyclonal antibodies were used as a positive control.
The glyco-specificity of monoclonal anti-BTN1A1 antibodies was characterized by dot blot analysis. Each anti-BTN1A1 mAb (0.5 μg/well loaded) was tested for binding to glycosylated BTN1A1 (PNGaseF “−”) or deglycosylated BTN1A1 (PNGaseF “+”). Non-specific antibody controls (“IgG,” 0.25 μg/well loaded) was also included in the assay. As shown in FIGS. 9A-9B, both glycosylated BTN1A1 protein and non-glycosylated BTN1A1 (BTN1A1 protein treated with PNGase F) were coated on the solid phase and tested for mAbs and antigens binding affinity. […] The glyco-specificity of monoclonal anti-BTN1A1 antibodies was also characterized by FACS analysis. […] After washing, fluorescence intensity (MFI) was measured to assess relative binding of antibodies to membrane bound glycosylated or unglycosylated BTN1A1. […]

[3] = target: T3, human BTN1A1 extracellular domain tagged with human IgG1 Fc (human, UniProt Q13410 27-242); assay: SPR (Biacore), STC810 captured on Protein A chip, BTN1A1-ECD-Fc injected
T3 construct: also called hBTN1A1-Fc; BTN1A1-Fc; not shown: human IgG1 Fc region
T3 chain: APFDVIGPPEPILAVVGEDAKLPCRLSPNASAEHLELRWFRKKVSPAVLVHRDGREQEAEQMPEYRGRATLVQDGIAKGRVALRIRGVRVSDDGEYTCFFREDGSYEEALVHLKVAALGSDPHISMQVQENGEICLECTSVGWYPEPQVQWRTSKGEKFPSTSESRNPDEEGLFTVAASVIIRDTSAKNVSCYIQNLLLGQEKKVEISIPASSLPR
Procedure: (§1) FIG. 11—Surface plasmon resonance analysis of BTN1A1-Fc and BTN1A1-His binding to immobilized STC810 MAb. FIG. 11A: Sensorgrams showing real-time binding of soluble BTN1A1-Fc protein (2-64 nM with 2-fold dilution) to STC810 immobilized on a Protein A-CM5 chip. Flow cells without any immobilized protein were used as the controls for non-specific binding and were subtracted from the presented data. FIG. 11B: Sensorgrams showing real-time binding of soluble BTN1A1-His protein (2-64 nM with 4-fold dilution) to STC810 immobilized on a Protein A-CM5 chip.
(§2) In a Biacore assay, the binding affinity between BTN1A1 and monoclonal anti-BTN1A1 antibody STC810 was measured by Surface Plasmon Resonance. Sensorgram and saturation curve of the titration of antibody by BTN1A1-ECD tagged with 6×His or human IgG1 Fc. The protein A chip (BIAcore) was coated with antibody with 600 response units (RU) and the BTN1A1 ECD was injected in the microfluidic channel. The KD values were obtained using the fitting tool of the BIAevaluation software (BIAcore). FIG. 11 provides sensorgrams showing real-time binding of soluble BTN1A1-Fc protein (2-64 nM with 2-fold dilution; FIG. 11A) or soluble BTN1A1-His protein (2-64 nM with 4-fold dilution; FIG. 11B) to STC810 immobilized on a Protein A-CM5 chip. […]

[4] = target: T4, human BTN1A1 extracellular domain tagged with 6xHis (human, UniProt Q13410 27-242, N-glycosylated (removed by PNGase F in the deglycosylated control)); assay: SPR (Biacore), STC810 captured on Protein A chip, BTN1A1-ECD-His injected
T4 construct: also called hBTN1A1-His; BTN1A1-His
T4 chain: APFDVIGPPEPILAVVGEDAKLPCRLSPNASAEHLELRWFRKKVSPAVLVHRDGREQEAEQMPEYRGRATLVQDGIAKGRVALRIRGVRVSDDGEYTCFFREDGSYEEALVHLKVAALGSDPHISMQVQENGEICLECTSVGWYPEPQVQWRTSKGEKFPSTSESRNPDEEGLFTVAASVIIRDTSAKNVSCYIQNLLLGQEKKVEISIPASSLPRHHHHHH
Procedure: as §1, §2

[5] = target: T3, human BTN1A1 extracellular domain …; assay: BLI (Octet), antibody loaded on sensor, single analyte concentration, 1:1 fit
Procedure: (§3) The KD value of STC810 was also determined in an octet assay. […] Baseline was established in PBS containing 1 mg/ml bovine serum albumin (assay buffer), the association step was performed by submerging the sensors in a single concentration of analyte in assay buffer. Dissociation was performed and monitored in fresh assay buffer. All experiments were performed with sensor shaking at 1,000 rpm. ForteBio's data analysis software was used to fit the data to a 1:1 binding model to extract an association rate and dissociation rate. The KD value was calculated using the ratio kd/ka. In a typical epitope binning assay, antigen BTN1A1-Fc (10 nM) was preincubated with the second antibody (10 nM) for 1 h at room temperature. Control antibody (20 nM) was loaded onto AMC sensors (ForteBio) and remaining Fc-binding sites on the sensor were blocked with a whole mouse IgG antibody (Jackson ImmunoResearch). The sensors were exposed to preinculated antigen-second antibody mixture. Raw data was processed using ForteBio's Data Analysis Software 7.0 and the antibody pairs were assessed for competitive binding. Additional binding by the second antibody indicates an unoccupied epitope (non-competitor), while no binding indicates epitope blocking (competitor).

[6] = target: T3, human BTN1A1 extracellular domain …; assay: SPR (Biacore), STC810 captured on Protein A chip, BTN1A1-ECD-Fc injected; column headed 'ka (1/s)'
Procedure: as §1, §2

[7] = target: T3, human BTN1A1 extracellular domain …; assay: SPR (Biacore), STC810 captured on Protein A chip, BTN1A1-ECD-Fc injected; column headed 'kd (1/Ms)'
Procedure: as §1, §2

[8] = target: T4, human BTN1A1 extracellular domain …; assay: SPR (Biacore), STC810 captured on Protein A chip, BTN1A1-ECD-His injected; column headed 'ka (1/s)'
Procedure: as §1, §2

[9] = target: T4, human BTN1A1 extracellular domain …; assay: SPR (Biacore), STC810 captured on Protein A chip, BTN1A1-ECD-His injected; column headed 'kd (1/Ms)'
Procedure: as §1, §2

[10] = target: T3, human BTN1A1 extracellular domain …; assay: BLI (Octet), antibody loaded on sensor, single analyte concentration, 1:1 fit; column headed 'ka (1/s)'
Procedure: as §3

[11] = target: T3, human BTN1A1 extracellular domain …; assay: BLI (Octet), antibody loaded on sensor, single analyte concentration, 1:1 fit; column headed 'kd (1/Ms)'
Procedure: as §3

mBTNA1A-FC = target: T5, mBTNA1A-FC (Mus musculus, UniProt Q62556); assay: dot blot (layout FIG. 9B), lanes 5-8 mBTNA1A-FC = mouse BTN1A1-Fc, untreated and PNGase F treated
T5 construct: antigen of lanes 5-8 of the dot blot, used untreated and PNGase F treated; the sheet prints mBTNA1A-FC; also called mouse BTN1A1-Fc; mouse BTN1A1 tagged with human IgG1 Fc region
T5 sequence (Fc fusion chain, looked up): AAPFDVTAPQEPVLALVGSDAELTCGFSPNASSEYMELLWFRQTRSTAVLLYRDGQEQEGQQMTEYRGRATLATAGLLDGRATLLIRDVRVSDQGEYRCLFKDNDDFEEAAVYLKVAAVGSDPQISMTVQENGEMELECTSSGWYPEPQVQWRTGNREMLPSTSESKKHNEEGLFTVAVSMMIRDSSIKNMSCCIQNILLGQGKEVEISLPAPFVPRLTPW
Procedure: FIG. 9—Dot blot analysis of mouse anti-human BTN1A1 antibodies. […] Antigen BTN1A1-ECD tagged with 6×His was treated with PNGase F to remove N-glycosylation. Polyclonal antibodies were used for positive control. To test the species specificity of BTN1A1, human and mouse BTN1A1 tagged with human IgG1 Fc region was used (lane 1-4 with human BTN1A1-Fc and lane 5-8 with mouse BTN1A1-Fc). The term “ECD” stands for extracellular domain.
The glyco-specificity of monoclonal anti-BTN1A1 antibodies was characterized by dot blot analysis. Each anti-BTN1A1 mAb (0.5 μg/well loaded) was tested for binding to glycosylated BTN1A1 (PNGaseF “−”) or deglycosylated BTN1A1 (PNGaseF “+”). Non-specific antibody controls (“IgG,” 0.25 μg/well loaded) was also included in the assay. As shown in FIGS. 9A-9B, both glycosylated BTN1A1 protein and non-glycosylated BTN1A1 (BTN1A1 protein treated with PNGase F) were coated on the solid phase and tested for mAbs and antigens binding affinity. […] The glyco-specificity of monoclonal anti-BTN1A1 antibodies was also characterized by FACS analysis. […] After washing, fluorescence intensity (MFI) was measured to assess relative binding of antibodies to membrane bound glycosylated or unglycosylated BTN1A1.

relative apoptosis of PC3 cells at 120 h (caspase 3/7), with activated T cells, 50 µg/ml STC810 [1]: 2 fold | fold MFI on glycosylated BTN1A1 (WT) over unglycosylated BTN1A1 (2NQ) [2]: 5 fold | Kd [3]: 1.81 nM | Kd [4]: 14.9 nM | Kd [5]: 2.12 nM | koff [6]: 0.00018 s⁻¹ | kon [7]: 98900 M⁻¹ s⁻¹ | koff [8]: 0.00402 s⁻¹ | kon [9]: 269000 M⁻¹ s⁻¹ | koff [10]: 0.000309 s⁻¹ | kon [11]: 145000 M⁻¹ s⁻¹ | binding result (mBTNA1A-FC): no binding (tested: 0.5 µg/well)
B1: mouse monoclonal anti-human BTN1A1 antibody STC810 (antibody, V domains shown)
VH: EVQLQQSGPELVKPGASVKISCKASGYTFTHYNMDWVKQSHGKSLEWIGYIYPSNGGTGYNQKFKSRATLTVDKSSSTAYMELHSLTSEDSAVYYCARGAYHYGSSYAYWYFDVWGAGTTVTVSS
VL: DIQMTQTTSSLSASLGDRVTISCSASQDISNYLNWYQQKPDETVKLLISYTSSLHSGVPSRFSGSGSGTDYSLTISNLAPEDIATYYCQQSSKLPFTFGSGTELEIKR
notes: also called STC838; STC810 MAb
